From the supplement of paper PMC10567573

B1: ZNF649 (parent)
chain: DECEKAYFYMSCLVKHKRIHSREK
B2: RAB11B (parent)
chain: AVPTDEARAFAEKNNLSFIETSAL

Variants of: B1
Test: protein stability index of a GFP-peptide fusion (GPS, HEK-293T) (PSI 1-6); higher = more stable
Details: c terminus: a fixed tail appended
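Further: lentivirally expressed fusions sorted by FACS into six bins by GFP to DsRed ratio, PSI derived from sequencing read proportions per bin multiplied by bin number.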

Protein stability index of substitutions, site by site:
A6: D 3.52, C 2.08
E2: M 1.41, K 2.17, T 3.17, Q 2.49, Y 4.44, I 1.71, D 2.21, R 2.08, G 2.29, S 1.72, A 2.17, N 2.62, L 2.25, P 2.21, H 2.03, V 1.57, C 1.52, F 2.82
C3: D 2.98, Y 2.67, E 3.97, V 2.55, A 3.06, N 2.64, Q 3.11, F 1.91, W 1.97, H 2.35, S 2.53, K 2.88, L 1.8, G 2.92, T 2.9, I 1.81, M 2.4, R 2.33, P 2.77
E4: W 1.99, A 1.62, K 1.66, R 2.33, D 2.83, T 2.88, L 2.18, I 2.17, H 2.26, N 2, M 1.44, F 1.92, Q 2.34, C 2.01, Y 2.01, G 1.76, S 2.48, V 1.79, P 2.45
K5: N 2.84, T 2.64, Y 1.82, H 2.79, F 1.67, I 1.79, D 3.36, G 3.13, P 3.51, A 2.71, M 2.34, Q 3.08, W 2.82, C 2.52, S 2.44, L 2.61, V 1.81, R 2.5, E 2.95
D1: L 1.98, G 1.92, Q 2.44, P 2.44, H 2.61, I 1.98, W 2.2, V 1.57, F 1.98, R 2.03, E 2.47, T 2.9, K 2, A 2.41, S 2.81, C 1.98, N 2.72, M 2.06, Y 2.17

Variants of: B2
Test: as above
Details: c terminus: a fixed tail appended

Protein stability index: each site, then its substitutions
L24: F 2.43, W 2.47, R 2.8, A 3.49, S 4.25, P 4.55, V 3.57, I 3.5, N 4.87, E 4.74, H 4.29, G 4.49, Q 3.98, K 4.15, Y 3.21, C 3.38, T 3.55, D 5.12, M 3.13
A23: N 2.88, G 3.96, L 2.4, F 2.14, W 2.15, C 2.9, T 2.77, S 3.38, I 2.09, H 2.62, E 4.41, P 2.86, V 1.75, K 3.28, R 2.47, M 2.3, Q 2.86, D 4.11, Y 2.43
S22: R 3.13, Q 3.56, A 2.71, G 2.85, K 3.69, P 4.02, F 2.52, L 3.08, I 2.49, E 4.06, W 2.91, T 2.98, V 3.19, C 3.36, Y 1.96, N 3.69, M 2.83, D 4.17, H 2.74
T21: G 2.38, N 2.86, Y 2, L 3.08, Q 4.12, K 3.65, V 1.52, S 3.64, H 3.06, M 3.35, I 2.3, W 2.76, P 2.35, R 3.42
